Assay [1] concerns the target T1, recombinant human FcRn (Sino Biological Inc. Cat. No. CT009-H08H) (human, UniProt P55899 24-297; P61769 21-119).
T1 construct: also called immobilized FcRn
The experiment in a line: competition ELISA, pH 6.0: test IgG4 (from transient HEK per paragraph 152) titrated against fixed biotinylated murine parent antibody on recombinant human FcRn; streptavidin-HRP/TMB, OD450 [top panel]. How it is done: (§1) The IgG4 antibodies were tested for antigen binding in a competition ELISA at pH 6.0 and pH 7.4. A Nunc Immuno MaxiSorp 96 well flat bottom microtitre plate (Fisher, cat. no. DIS-971-030J) was pre-coated with 1 μg/ml of an FcRn antibody specific for an IgG-binding epitope distinct from the albumin-binding region overnight at pH 7.4. The following day, 1 μg/ml recombinant human FcRn (Sino Biological Inc. cat. no. CT009-H08H) diluted in PBS pH 7.4 was added to the wells and incubated for 1 hour at 37° C. After washing the plates 3× with PBST pH 7.4, the plates were blocked with PBSM pH 7.4 for 1 hour at 37° C. From this point onwards, all wash and incubation steps were performed at the chosen assay pH (pH 6.0 or 7.4). […] The reaction was stopped with 3 M HCl, absorbance read at 450 nm on a Dynex Technologies MRX TC II plate reader and the binding curves plotted.
(§2) NS0 produced humanized affinity matured IgGs were used in all assays other than G50_C10/Vκ3), which was purified from transiently expressing HEK cells.
(ELISA stands for enzyme-linked immunosorbent assay.)

Assay [2] deals with T2, FcRn (analyte in the Biacore T200 study) (human, UniProt P55899 24-297; P61769 21-119, limits assumed).
T2 construct: also called human FcRn
The experiment in a line: SPR Biacore T200, antibody amine-coupled to CM5, FcRn analyte, 1:1 model; chip with the three best variants (repeat run, dissociation 4500 s per paragraph 156); pH not stated. How it is done:
(§3) Antibodies were immobilized onto a Series S CM5 sensor chip surface using standard amine coupling chemistry and analyte (FcRn) flowed over the surface. A 2-fold dilution range was selected from 50-0.01 nM FcRn. The association phase of FcRn analyte was monitored for 450 seconds, and dissociation was initially measured for either 250 or 2500 seconds, at 40 μl/min Fc1 was a reference channel and was subtracted from other flow cells to correct for non-specific binding. […] Kinetic values are based on a 1:1 binding model (Table 5).

For assay [3], the target named is T1, recombinant human FcRn (Sino Biological …). In words: competition ELISA, pH 7.4; competitor biotinylated parent murine antibody; captured recombinant human FcRn; HEK-expressed IgG4. How it is done:
as §1

Assay [4] shares this target. In words: competition ELISA, pH 6.0; competitor biotinylated parent murine antibody; captured recombinant human FcRn; HEK-expressed IgG4. How it is done: as §1
The target in assay [5] is T3, monomeric His-tagged hFcRn (human, UniProt P55899 24-297; P61769 21-119, limits assumed).
T3 construct: also called human FcRn; not shown: His tag
The experiment in a line: SPR Biacore 3000, antibody amine-coupled to CM5, His-tagged hFcRn analyte, pH 7.4, 25 C, 1:1 Langmuir. How it is done:
(§4) The coupling was performed by injecting 2 μg/ml of each protein into 10 mM sodium acetate, pH 4.5 (GE Healthcare), using the amine coupling kit (GE Healthcare). HBS-P buffer pH 7.4 (0.01 M HEPES, 0.15 M NaCl, 0.005% surfactant P20) or phosphate buffer pH 6.0 (67 mM phosphate buffer, 0.15 M NaCl, 0.005% Tween 20) were used as running buffer and dilution buffer. […] All SPR experiments were conducted at 25° C. with a flow rate of 40 μl/min Binding data were zero-adjusted, and the reference cell value subtracted. The Langmuir 1:1 ligand binding model provided by the BIAevaluation software (version 4.1) was used to determine the binding kinetics. The closeness of the fit is described by the statistical value χ².
(§5) The kinetic rate constants were obtained using a simple first-order (1:1) Langmuir bimolecular interaction model. The kinetic values represent the average of duplicates. The χ² (chi-square) values represent the fit to the binding model used.
In general terms: Surface plasmon resonance follows binding to a sensor surface in real time, without labels.

For assay [6], the target named is T1, recombinant human FcRn (Sino Biological …). The experiment in a line: competition ELISA, pH 6.0; competitor biotinylated parent murine antibody; captured recombinant human FcRn; HEK-expressed IgG4. How it is done: as §1, §2
This is another data set of the same source.

The target in assay [7] is T3, monomeric His-tagged hFcRn. The experiment in a line: SPR Biacore 3000, antibody amine-coupled to CM5, His-tagged hFcRn analyte, pH 7.4, 25 C, 1:1 Langmuir; pH 7.4. How it is done:
as §4, §5

Assay [8] addresses T2, FcRn (analyte in the Biacore T200 study). The experiment in a line: SPR Biacore T200, antibody immobilized, FcRn analyte. How it is done:
as §3

Assay [9] concerns the target T1, recombinant human FcRn (Sino Biological …). The experiment in a line: competition ELISA, pH 7.4: test IgG4 (from transient HEK per paragraph 152) titrated against fixed biotinylated murine parent antibody on recombinant human FcRn; streptavidin-HRP/TMB, OD450 [top panel]. How it is done: as §1, §2
Assay [10] has as its target T3, monomeric His-tagged hFcRn. The experiment in a line: SPR Biacore 3000, antibody amine-coupled to CM5, His-tagged hFcRn analyte, pH 6.0, 25 C, 1:1 Langmuir. How it is done: as §4
The target of assay [11] is T2, FcRn (analyte in the Biacore T200 study). In words: SPR Biacore T200, antibody amine-coupled to CM5, FcRn analyte, 1:1 model; pH not stated. How it is done: as §3
The target in assay [12] is T3, monomeric His-tagged hFcRn. The experiment in a line: SPR Biacore 3000, antibody amine-coupled to CM5, His-tagged hFcRn analyte, pH 6.0, 25 C, 1:1 Langmuir; pH 6.0. How it is done:
as §4, §5

The target of assay [13] is T1, recombinant human FcRn (Sino Biological …). In words: competition ELISA, pH 7.4; competitor biotinylated parent murine antibody; captured recombinant human FcRn; HEK-expressed IgG4. How it is done:
as §1, §2
This is another data set of the same source.

The results in this text go back to patent US20190135915A1 (SYNTIMMUNE, published 2019).

“And” between values parts separate entries of the source, which are not always exact repeats. Equal values may be shown once.

T3 sequence (P55899 24-297 limits assumed, chain 1 of 2): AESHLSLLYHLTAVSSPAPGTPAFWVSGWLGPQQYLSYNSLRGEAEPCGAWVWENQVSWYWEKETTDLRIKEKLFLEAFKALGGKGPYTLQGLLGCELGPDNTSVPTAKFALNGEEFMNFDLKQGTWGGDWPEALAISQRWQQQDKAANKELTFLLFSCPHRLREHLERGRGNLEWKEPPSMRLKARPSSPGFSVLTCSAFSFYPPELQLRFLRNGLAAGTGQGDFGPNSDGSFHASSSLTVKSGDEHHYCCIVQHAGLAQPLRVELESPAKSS
T3 sequence (P61769 21-119 limits assumed, chain 2 of 2): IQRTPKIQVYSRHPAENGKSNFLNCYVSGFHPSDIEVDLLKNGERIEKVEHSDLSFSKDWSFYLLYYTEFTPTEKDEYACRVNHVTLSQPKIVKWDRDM
T1 sequence (P55899 24-297 limits assumed, chain 1 of 2): as the sequence (P55899 24-297 limits assumed, chain 1 of 2) above
T1 sequence (P61769 21-119 limits assumed, chain 2 of 2): as the sequence (P61769 21-119 limits assumed, chain 2 of 2) above
T2 sequence (P55899 24-297 limits assumed, chain 1 of 2): as the sequence (P55899 24-297 limits assumed, chain 1 of 2) above
T2 sequence (P61769 21-119 limits assumed, chain 2 of 2): as the sequence (P61769 21-119 limits assumed, chain 2 of 2) above

B1: G50_C10/Vκ3 (antibody, V domains shown)
VH: EVQLVESGGGLVKPGGSLKLSCAASGFTFSDYGMHWVRQAPGKGLEWVAYISSGSSTIYYADTVKGRFTISRDNAKNTLYLQMNSLRAEDTAMYYCARLESTTAVGDYWGQGTSVTVSS
VL: DIVMTQSPDSLSASVGDRVTITCKASQSVSNDVAWYQQKPGQPPKLLIYYASNRYTGVPDRFSGSGYGTDFTLTISSLQAEDVAVYFCQQDYSSLTFGQGTKLEIK
notes: Bivalent IgG4 with S241P, human kappa; also called SYNT002-16; G50_C10/Vκ3 (HEK)
One may read the Kd as the concentration at which binding is half-saturated. A low value points to a tighter complex. What is called koff is a measure of how fast the partners let go of each other. A high value points to fast dissociation. By kon is commonly meant the rate constant with which the complex forms. High values mean faster complex formation, low ones slower complex formation. For B1, the entries for the “IC50 (read off the curve)” value in assay [1] and in assay [9] were approximately 0.5 µg/mL and approximately 0.4 µg/mL, respectively. Besides, the Kd in assay [2] came out at 0.054 nM; in assay [5], 0.00066 nM; in [10], 0.4 nM. Further, the koff in assay [2] was 1.54e-05 s⁻¹; in [7], 8e-08 s⁻¹; in [10] it was 4.7e-05 s⁻¹; in assay [11] it was ≤ 1e-05 s⁻¹ and 2.34e-05 s⁻¹. The kon is 283000 M⁻¹ s⁻¹ in [2]; 120000 M⁻¹ s⁻¹ in assay [5]; 399000 M⁻¹ s⁻¹ and 298000 M⁻¹ s⁻¹ in assay [11]; 110000 M⁻¹ s⁻¹ in [12]. Further, the “Average relative IC50 (relative to humanized parent)” value came to 0.7 in [3], 0.9 in assay [4], 0.89 in assay [6] and 0.54 in assay [13]. Also, in assay [8], the “fold improvement in affinity compared to the humanized parental, on average” value was determined as 50 fold.
